The results in this text go back to patent US20220088145A1.

For assay [1], the target named is HLA-DR15 dimer (DR1501) (human). Description: peptide binding to HLA-DR dimer; EC50 ratio (<20 = high affinity, 20-100 = moderate affinity); method not described.
The target in assay [2] is HLA-DR7 dimer (DR0701) (human). The assay is described as above.

For the substance E. rectale Fla1 p445-464 (peptide), in assay [1], the EC50 Ratio was found to be 4.5.

As for R. Intest. Fla1 p408-427 (peptide), the EC50 Ratio came out at 4.1 in assay [1] and 5 in assay [2].
